Measured values: publication PMC9169620, “Helical self-assembly of a mucin segment suggests an evolutionary origin for von Willebrand factor tubules” (Proceedings of the National Academy of Sciences of the …, 2022)

B1: MUC2 D1D2D3 (residues 21 to 1259 followed by a His6 tag) (domain or fragment, human, UniProt Q02817 21-1259, looked up)
chain: SELQTEGRTRNHGHNVCSTWGNFHYKTFDGDVFRFPGLCDYNFASDCRGSYKEFAVHLKRGPGQAEAPAGVESILLTIKDDTIYLTRHLAVLNGAVVSTPHYSPGLLIEKSDAYTKVYSRAGLTLMWNREDALMLELDTKFRNHTCGLCGDYNGLQSYSEFLSDGVLFSPLEFGNMQKINQPDVVCEDPEEEVAPASCSEHRAECERLLTAEAFADCQDLVPLEPYLRACQQDRCRCPGGDTCVCSTVAEFSRQCSHAGGRPGNWRTATLCPKTCPGNLVYLESGSPCMDTCSHLEVSSLCEEHRMDGCFCPEGTVYDDIGDSGCVPVSQCHCRLHGHLYTPGQEITNDCEQCVCNAGRWVCKDLPCPGTCALEGGSHITTFDGKTYTFHGDCYYVLAKGDHNDSYALLGELAPCGSTDKQTCLKTVVLLADKKKNVVVFKSDGSVLLNELQVNLPHVTASFSVFRPSSYHIMVSMAIGVRLQVQLAPVMQLFVTLDQASQGQVQGLCGNFNGLEGDDFKTASGLVEATGAGFANTWKAQSSCHDKLDWLDDPCSLNIESANYAEHWCSLLKKTETPFGRCHSAVDPAEYYKRCKYDTCNCQNNEDCLCAALSSYARACTAKGVMLWGWREHVCNKDVGSCPNSQVFLYNLTTCQQTCRSLSEADSHCLEGFAPVDGCGCPDHTFLDEKGRCVPLAKCSCYHRGLYLEAGDVVVRQEERCVCRDGRLHCRQIRLIGQSCTAPKIHMDCSNLTALATSKPRALSCQTLAAGYYHTECVSGCVCPDGLMDDGRGGCVVEKECPCVHNNDLYSSGAKIKVDCNTCTCKRGRWVCTQAVCHGTCSIYGSGHYITFDGKYYDFDGHCSYVAVQDYCGQNSSLGSFSIITENVPCGTTGVTCSKAIKIFMGRTELKLEDKHRVVIQRDEGHHVAYTTREVGQYLVVESSTGIIVIWDKRTTVFIKLAPSYKGTVCGLCGNFDHRSNNDFTTRDHMVVSSELDFGNSWKEAPTCPDVSTNPEPCSLNPHRRSWAEKQCSILKSSVFSICHSKVDPKPFYEACVHDSCSCDTGGDCECFCSAVASYAQECTKEGACVFWRTPDLCPIFCDYYNPPHECEWHYEPCGNRSFETCRTINGIHSNISVSYLEGCYPRCPKDRPIYEEDLKKCVTADKCGCYVEDTHYPPGASVPTEETCKSCVCTNSSQVVCRPEEGKILNQTQDGAFCYWEICGPNGTVEKHFNICSIT
notes: Mucin-2 (MUC2), human intestinal gel-forming mucin, amino-terminal D1D2D3 region, residues 21 to 1259, without CysD1; The dimers assemble into two-start helical tubules at acidic pH; also called D1D2D3 fragment; MUC2 amino-terminal fragment spanning the D1D2D3 region but lacking CysD1; source: HEK 293F, transient transfection, purified from culture medium (Ni-NTA); not shown: His6, C-terminal, …
B2: MUC2 D1D2D3, with an amino-terminal His6 tag and TEV protease cleavage site and lacking a carboxy-terminal His6 (domain or fragment, human, UniProt Q02817 21-1259, looked up)
chain: B1 chain
notes: Mucin-2 (MUC2), human, D1D2D3 region; Made by restriction-free cloning from the plasmid of m1; also called D1D2D3 fragment produced with an amino-terminal His6 tag that was removed proteolytically; source: HEK 293F, transient transfection, purified from culture medium (Ni-NTA); tag removed proteolytically during purification; not shown: His6, N-terminal, cleaved

Legend:
[1] = target: the molecule itself; assay: dynamic light scattering; MUC2 D1D2D3 at 0.3 mg/mL in 50 mM MES at varying pH, 150 mM NaCl, 37 °C; large species at pH 5.8 and below
[2] = target: the molecule itself; assay: negative stain TEM; MUC2 D1D2D3 at 0.3 mg/mL in 50 mM MES (pH 5.4), 225 mM NaCl, 10 mM CaCl2, 37 °C for 24 h; diluted to 0.03 mg/mL, stained with 2% uranyl acetate

Protein	binding result [1]	binding result [2]
B1	binds	
B2		binds
